# In patent US20230039279A1, “INFLAMMATION-RESPONSIVE ANTI-INFLAMMATORY HYDROGELS” (Nanyang Technological University, priority 2019, published 2023):
# “Also recorded” adds a separate entry of the source.
# Tests used:
# [1] = test system: MMPs; experiment: PMA skin inflammation mouse model, MMP activity by MMPSense fluorescent imaging; format: in vivo; conditions: 24 hours after subcutaneous PMA injection
# Experimental: (§1) We established a mouse model of skin inflammation using phorbol 12-myristate 13-acetate (PMA) as a stimulant (FIG. 12A) which could induce the upregulation of MMPs captured by MMPSense probe. At the PMA injection sites 24 hours post PMA injection, we observed a red area whose extent was associated with the increase in PMA amounts injected (FIG. 12B). […] In addition, there was a basal of amount of MMP which generated the lowest fluorescent signal at PMA-free PBS buffer injection site. Thus, as more PMA was subcutaneously injected, the fluorescent intensity rose; and more importantly this increase in signal intensity correlated with the extent of the red area on the dorsal side of mice. Protein expression was also studied as skin tissue at the PMA injection sites were retrieved for MMP-9 quantification using ELISA kit (FIG. 12E). […] Overall, PMA subcutaneous injection with increasing amounts could induce subcutaneous inflammation with increasing levels of severity, resulting in more MMP-9 secretion.
# [2] = test system: MMP-9; experiment: PMA skin inflammation mouse model, MMP-9 quantification in skin tissue by ELISA; format: in vivo; conditions: skin tissue at injection site
# Experimental: as §1
# [3] = test system: RAW 264.7 murine macrophages; experiment: WST-1 relative metabolic activity of macrophages treated with hydrogel releasates; format: cell-based; conditions: 0.6 mg/mL freely dissolved drug, equivalent dosage; 72 hours treatment
# Experimental: RAW 264.7 murine macrophages were cultured in high glucose DMEM (Gibco Laboratories) supplemented with 10% FBS (Gibco Laboratories), and 1% penicillin/streptomycin (Gibco Laboratories) at 37° C. in 5% CO2 atmosphere. RAW 264.7 macrophages at passages of 20-30 were seeded in 96-well plates (Corning®) at an initial seeding density of 2×10^4 cells/well and incubated at 37° C. for 24 hours. A volume of 100 μL of each hybrid hydrogel (GEL-iP and scrGEL-iP) fabricated with 1.7% (w/v) of PEG and 5% (w/v) of ibuprofen-loaded PLGA microparticles was incubated in 500 μL of phenol red-free DMEM (Gibco Laboratories) culture medium for 2 hours in the presence and absence of 3 μg/ml of MMP-9 (FIG. 4A). […] Afterwards, the releasates were removed from the treated macrophages; and the in vitro metabolic activity of treated cells was evaluated using WST-1 cell proliferation assay (Abcam) as per manufacturer's protocol. […] A volume of 100 μL of this medium was then transferred into a new 96-well plate; and its absorbance at 450 nm and 690 nm was recorded using a microplate reader (SpectraMax M5). To calculate relative metabolic activity, all the absorbance values at 450 nm were subtracted by the values at the reference wavelength of 690 nm and the background absorbance to achieve corrected absorbance values. Afterward, the relative metabolic activity was calculated as follows: […]
# [4] = Tube-inversion gelation screening of peptide crosslinkers with PEG-VS and ibu-PLGA particles; format: physicochemical
# Experimental: Peptide-crosslinked hydrogels were prepared by reacting 4-arm poly(ethylene glycol)-vinyl sulfone (PEG-VS) (20 kDa, Sigma Aldrich, St. Louis, Mo., USA) with bis-cysteine peptides (Genscript, Hong Kong) in stoichiometric ratio. Each precursor was dissolved in either triethanolamine (TEOA) buffer (0.3M) or PBS/NaOH buffer (pH=10). Typically, to prepare 117 μL of peptide-crosslinked hydrogels with 4.2% (w/v) PEG content, 5 mg of PEG-VS was dissolved in 100 μL of a buffer solution in a glass vial and mixed with a stoichiometric amount of a peptide crosslinker dissolved in 17 μL of the same buffer solution. Hydrogels with 4.2% (w/v) PEG content were evaluated in the preliminary screening of peptide crosslinkers. Hydrogels with 1.7% (w/v) PEG content were used in all subsequent in vitro and in vivo experiments. To form hybrid hydrogels consisting of PLGA particles (with or without ibuprofen) embedded in peptide-crosslinked hydrogels, the aforementioned precursors were dissolved separately in a buffer solution containing suspended PLGA particles at a concentration of 5% (w/v).
# To identify an optimal peptide crosslinker for GEL-iP, we performed qualitative screening of 8 peptide sequences (Table 3 and FIG. 14) by evaluating the influence of substrate and spacer choices on the gelation and cleavability of hybrid hydrogels. In addition, buffers in which gelation occurred was also investigated because their environmental pH might affect the deprotonation of thiols and subsequently influence the crosslinking process. For each combination of substrate, spacer and buffer, the feasibility of gelation was visually inspected via a tube-inversion method. A stoichiometric amount of a peptide crosslinker was added to a glass vial containing a mixture of PEG-VS solution and suspended ibu-PLGA particles. In a parallel experiment, another vial with the same mixture composition, but without the peptide crosslinker of interest, was used as a control. The two vials were inverted at regular intervals until the mixture in one vial stopped flowing despite gravity indicating successful gelation. An example of the successful gelation of a typical hybrid hydrogel was captured in photographs of glass vials A1 and A2 (FIG. 2). […] This solid white appearance resulted from the white ibu-PLGA particles. In the absence of any peptide crosslinker, the precursor mixture in the control vial A2 remained free-flowing, indicating absence of gelation.
# [5] = target: T1, MMP-9 (Homo sapiens, UniProt P14780); experiment: MMP-9 cleavability of hybrid hydrogels (released particles seen under optical microscope); format: biochemical; design: purchased Merck; conditions: 3 μg/ml MMP-9 in PBS, 37° C., 20 hours
# Experimental: Each hybrid hydrogel of 20 μL volume in a 500 μL Eppendorf tube was incubated at 37° C. with 3 μg/ml of MMP-9 (83 kDa, Merck) in PBS buffer (DPBS/modified, without calcium and magnesium, HyClone™). In a control experiment, another hybrid hydrogel with the same composition was immersed in PBS buffer without MMP-9. After 20 hours of incubation, the medium surrounding the hybrid hydrogel was sampled onto a cover slip and observed under an optical microscope (Olympus CKX53SF, Japan) to inspect for the presence of released particles.
# The selected concentration of MMP-9 is within the range of MMP-9 expression in clinical wound fluids and synovial fluids of patients with rheumatoid arthritis and osteoarthritis [Ladwig, G. P. et al. Wound Repair and Regeneration 10(1) 26-37 (2002); Li, Z. et al. Journal of Diabetes and its Complications 27(4) 380-382 (2013)]. In a typical successful cleavage by MMP-9, the photographs of vials B1 and B2 in FIG. 2 show the appearance of a hybrid hydrogel, which had the same composition as that in vial A1, after prolonged exposure to a buffer with and without MMP-9 respectively. […] The optical microscope image C1 verified the presence of ibu-PLGA particles in the resulting liquid mixture of vial B1 confirming the successful digestion of this hybrid hydrogel by MMP-9. In contrast, MMP-9-free PBS buffer added after gelation was observed as a clear liquid phase in vial B2. The optical microscope image C2 also confirmed the absence of any released lbu-PLGA particles in vial B2.
# Target sequence in this assay (P14780 107-707 limits assumed): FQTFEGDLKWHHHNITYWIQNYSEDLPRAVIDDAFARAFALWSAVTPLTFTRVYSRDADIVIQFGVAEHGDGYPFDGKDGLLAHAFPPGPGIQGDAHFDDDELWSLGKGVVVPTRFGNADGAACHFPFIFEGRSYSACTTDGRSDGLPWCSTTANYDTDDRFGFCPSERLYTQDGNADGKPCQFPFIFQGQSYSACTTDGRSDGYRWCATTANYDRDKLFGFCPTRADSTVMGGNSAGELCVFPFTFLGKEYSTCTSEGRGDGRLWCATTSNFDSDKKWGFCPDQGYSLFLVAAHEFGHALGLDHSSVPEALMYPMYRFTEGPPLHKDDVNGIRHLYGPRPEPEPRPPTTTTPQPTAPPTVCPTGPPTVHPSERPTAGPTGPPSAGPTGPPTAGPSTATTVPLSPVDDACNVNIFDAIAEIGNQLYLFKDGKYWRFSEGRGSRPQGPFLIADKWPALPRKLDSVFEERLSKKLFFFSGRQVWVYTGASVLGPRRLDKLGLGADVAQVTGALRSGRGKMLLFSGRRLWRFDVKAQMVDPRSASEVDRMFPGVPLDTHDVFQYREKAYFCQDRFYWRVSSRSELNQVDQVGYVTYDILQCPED
# [6] = target: T1, MMP-9; experiment: Protease specificity of peptide anchor (MMP-9 versus Cathepsin B and HNE); format: biochemical
# From the text: A) The cumulative liberation of ibuprofen (LIbu) increased corresponding to the increase in the MMP-9 concentrations. Absence of diffusion-driven basal release in the absence of MMP9 protease (bottom line). B) The specificity of GPRSLSGRRCG (SEQ ID NO: 20) sensitivity to MMP-9 compared to Cathepsin B and HNE. Error bars represent standard error of the means of n=4 replicates.
# FIG. 9 supports the hypothesis that protease-sensitive drug release can be achieved from an ibuprofen-conjugated PEG hydrogel upon exposure to clinically relevant protease concentration of 1 ug/ml. […] LC-MS analysis confirmed the presence of the liberated ibuprofen bearing fragment (ibu-GPQG, LC peak at elution time of 14.6 min, MS peak at m/z=546.20) in the supernatant collected after 2 days of hydrogel exposure to MMP9 solution (FIG. 9B). In contrast, this peak is absent from the supernatant collected when the hydrogel was exposed to a control buffer without MMP9. Since the concentration of active MMP9 in human wound fluid falls within the range of 0.3-4.8 μg/ml, our data in FIG. 10A support the feasibility of drug release at a clinically relevant protease concentration.
# Target sequence in this assay (P14780 94-707): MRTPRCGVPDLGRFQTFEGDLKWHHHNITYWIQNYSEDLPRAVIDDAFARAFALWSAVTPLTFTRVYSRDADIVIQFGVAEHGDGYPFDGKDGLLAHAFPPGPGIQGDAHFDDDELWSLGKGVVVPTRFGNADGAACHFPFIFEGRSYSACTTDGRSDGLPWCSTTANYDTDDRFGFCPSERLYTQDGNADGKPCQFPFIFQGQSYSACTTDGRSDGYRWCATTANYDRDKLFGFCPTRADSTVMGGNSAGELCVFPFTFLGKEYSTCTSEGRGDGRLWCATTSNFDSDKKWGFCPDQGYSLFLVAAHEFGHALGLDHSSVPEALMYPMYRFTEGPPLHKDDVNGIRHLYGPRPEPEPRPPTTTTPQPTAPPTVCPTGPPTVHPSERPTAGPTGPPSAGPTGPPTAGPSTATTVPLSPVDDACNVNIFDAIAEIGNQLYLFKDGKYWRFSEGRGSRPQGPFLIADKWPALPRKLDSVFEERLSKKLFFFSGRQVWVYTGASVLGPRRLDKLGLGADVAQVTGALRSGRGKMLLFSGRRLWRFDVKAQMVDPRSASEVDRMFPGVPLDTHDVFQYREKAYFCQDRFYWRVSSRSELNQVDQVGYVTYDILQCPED
# [7] = target: T1, MMP-9; experiment: Degradation of plural protease-cleavable hydrogel, MMP-9 alone; format: biochemical
# Experimental: (§2) A) Schematic of the mechanism of dual protease-responsive combinational hydrogel system. B) Photographs show the cleavability of H2-M2 combinational hydrogels over 24 hours (n=3). (i) Control, (ii) With HNE protease; (iii) With MMP-9 protease; and (iv) With both HNE and MMP-9 proteases. C) Quantification of the average number of PLGA particles released from combinational hydrogels in the presence of zero, single or dual proteases over 24 hours (n=3). Error bars represent s.e.m of n=3 replicates. p-values were determined by one-way ANOVA with Tukey post-hoc analysis. (***) and (ns) denote p≤0.001 and p≥0.05 (not significant) respectively.
# Target sequence in this assay (P14780 94-707): as above
# [8] = target: T2, HNE (Homo sapiens, UniProt P08246); experiment: Degradation of plural protease-cleavable hydrogel, HNE alone; format: biochemical
# T2 sequence (P08246 30-267): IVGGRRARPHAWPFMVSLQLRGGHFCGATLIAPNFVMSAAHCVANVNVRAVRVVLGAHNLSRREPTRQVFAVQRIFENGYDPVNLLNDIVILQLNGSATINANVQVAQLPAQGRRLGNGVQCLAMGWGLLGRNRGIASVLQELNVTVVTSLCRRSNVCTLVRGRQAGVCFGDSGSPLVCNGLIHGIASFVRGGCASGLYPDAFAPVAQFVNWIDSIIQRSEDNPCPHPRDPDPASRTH
# Experimental: as §2
molecule,measurement,setting,value
"CCCCCCCCCCCCCC(=O)O[C@@H]1[C@@H](C)[C@@]2(O)[C@@H](C=C(CO)C[C@]3(O)C(=O)C(C)=C[C@@H]23)[C@@H]2C(C)(C)[C@]12OC(C)=O [PMA, phorbol 12-myristate 13-acetate]","MMP activity (fluorescent signal), difference 4 μg versus 0.4 μg of PMA",[1],1.9 fold
same,"amount of MMP-9 secreted, difference 4 μg versus 0 μg PMA",[2],10 fold
same,"amount of MMP-9 secreted, difference 4 μg versus 0.4 μg PMA",[2],5 fold
CC(C)Cc1ccc(C(C)C(=O)O)cc1 (stereo not drawn) [ibuprofen],relative metabolic activity of macrophages,[3],~0%
GCRD-AVRW↓LLTA-DRCG (GCRDAVRWLLTADRCG; GCRD-AVRWLLTA-DRCG) [peptide (8)],gelation by crosslinking with PEG-VS,[4]; PBS/NaOH buffer,preventing gelation
same,gelation by crosslinking with PEG-VS,[4]; TEOA buffer,preventing gelation
"GCRD-GPQG↓IWGQ-DRCG (GCRDGPQGIWGQDRCG; GCRD-GPQGIWGQ-DRCG) [peptide (5), spacer GCRD]",cleavability of hybrid hydrogel crosslinked with the peptide by MMP-9,[5],could be digested by MMP-9
GCRD-KGPRS↓LSGK-DRCG (GCRDKGPRSLSGKDRCG; GCRD-KGPRSLSGK-DRCG) [(7)],cleavability of hybrid hydrogel crosslinked with the peptide by MMP-9,[5],could be digested by MMP-9; also recorded: successful hydrogel cleavage by MMP-9
"GCRD-LGRM↓GLPGK-DRCG (GCRDLGRMGLPGKDRCG; GCRD-LGRMGLPGK-DRCG) [peptide (6), spacer GCRD, same substrate as peptide (2)]",cleavability of hybrid hydrogel crosslinked with the peptide by MMP-9,[5],not cleaved
GCRR-AVRW↓LLTA-RRCG (GCRRAVRWLLTARRCG; GCRR-AVRWLLTA-RRCG) [peptide (3)],gelation by crosslinking with PEG-VS,[4]; PBS/NaOH buffer,could induce gelation
same,gelation by crosslinking with PEG-VS,[4]; TEOA buffer,not
same,cleavability of hybrid hydrogel crosslinked with the peptide by MMP-9,[5],not cleaved
"GCRR-GPQG↓IWGQ-RRCG (GCRRGPQGIWGQRRCG; GCRR-GPQGIWGQ-RRCG) [peptide (4), spacer GCRR]",cleavability of hybrid hydrogel crosslinked with the peptide by MMP-9,[5],could be digested by MMP-9; also recorded: successful hydrogel cleavage by MMP-9
GCRR-KGPRSLSGK-RRCG (GCRRKGPRSLSGKRRCG; GCRR-KGPRSLSGK-RRCG) [peptide (1)],cleavability of hybrid hydrogel crosslinked with the peptide by MMP-9,[5],could be digested by MMP-9; also recorded: successful hydrogel cleavage by MMP-9
"GCRR-LGRM↓GLPGK-RRCG (GCRRLGRMGLPGKRRCG; GCRR-LGRMGLPGK-RRCG) [peptide (2), spacer GCRR, same substrate as peptide (6)]",cleavability of hybrid hydrogel crosslinked with the peptide by MMP-9,[5],not cleaved
GPRSLSGRRCG (GPRSLSGRRCG),specificity toward MMP-9 compared to cathepsin B and HNE,[6],good specificity toward MMP-9
GRCR-GPRS↓LSG-RCRG [M2],preferential cleavage of peptide substrate by MMP-9,[7],preferentially cleaved
GRCR-PMAV↓VQSVP-RCRG [H2],preferential cleavage of peptide substrate by HNE,[8],preferentially cleaved
